# From publication doi:10.1101/2019.12.17.880419
# Read-outs that look alike come from different tables or passages of the source.
# T1: UHRF1 SRA (mouse, UniProt Q8VDF2 417-628)
# T1 sequence: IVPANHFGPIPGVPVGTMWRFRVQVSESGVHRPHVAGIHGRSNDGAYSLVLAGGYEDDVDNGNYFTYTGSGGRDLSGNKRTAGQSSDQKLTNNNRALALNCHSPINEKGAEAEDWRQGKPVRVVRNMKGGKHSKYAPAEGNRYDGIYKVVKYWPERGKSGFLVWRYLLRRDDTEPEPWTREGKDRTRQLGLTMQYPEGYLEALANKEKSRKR
# B1: mCH DNA (dsDNA)
# DNA 1: TCATCAGTGAT
# DNA 2: TCACTGATGAC
# modifications: 5mC in CH context
# B2: fully-mCHG DNA (ITC) (dsDNA)
# DNA 1: TCACGCTGCGTGA
# DNA 2: TCACGCTGCGTGA
# modifications: 5mC on both strands in CHG context
# B3: fully-mCG DNA (dsDNA)
# DNA 1: CAGCTCGAGCTG
# DNA 2: CAGCTCGAGCTG
# modifications: 5mC on both strands in CG context
# B4: hemi-mCG DNA (dsDNA)
# DNA 1: GCAATCCGGTAG
# DNA 2: CTACCGGATTGC
# modifications: 5mC on one strand in CG context
# Legend:
# Assay in all cases: ITC
# UHRF1 SRA [1] = biological target: T1, UHRF1 SRA
# UHRF1 SRA [2] = biological target: T1, UHRF1 SRA; remark: listed apart in the source
# UHRF1 SRA [3] = biological target: T1, UHRF1 SRA; remark: listed apart in the source
# UHRF1 SRA [4] = biological target: T1, UHRF1 SRA; remark: listed apart in the source
binder,measurement,setting,value
B1,Kd,UHRF1 SRA [1],1160 ± 90 nM
B2,Kd,UHRF1 SRA [2],1850 ± 60 nM
B3,Kd,UHRF1 SRA [3],4130 ± 90 nM
B4,Kd,UHRF1 SRA [4],640 ± 120 nM
